Laboratory results reported in patent publication US20060014193A1, “Nucleoside phosphoramidates and nucleoside phosphoramidases” (priority 2004, published 2006).

How the values were obtained:
[1] = substrate: NCCc1c[nH]c2ccccc12; assay: Phosphoramidase fluorescence assay; type: biochemical, E. coli; settings: other: Table 5; pH 7.2; 25.0 °C
[2] = substrate: NCCc1c[nH]c2ccccc12; assay: Phosphoramidase fluorescence assay; type: biochemical, human; settings: other: Table 5; pH 7.2; 25.0 °C
Description: The fluorescence of tryptophan (ex, 280 nm, em 360 nm) can be quenched when covalently attached to a nucleoside monophosphate, and nucleoside phosphoramidates of D- and L-tryptophan and tryptamine are excellent fluorescent substrates for hHINT1. Typically, after measurement of initial substrate fluorescence, hHINT1 was added to the reaction solution (HEPES buffer, pH 7.2, 25° C.) and the change in fluorescence over 2 min was determined by converting the slope into μM of substrate hydrolyzed per μg of enzyme per min with a standard curve. […] Based on the generation of chimeric polypeptides between the hHINTI and the hinT of E. coli, the preference for D enantiomers by the human HINT1 polypeptide is likely conferred by the C-terminus amino acids (e.g., the C-terminus 5, 6, 5 7, 8, 9, 10, or 11 amino acids) of the hHINT1 enzyme. […] In addition, both D-tryptophan phosphoramidates of cytosine and uridine were substrates. Initial rates were determined 10 during the first 10-20% of the reaction for variable substrate concentrations. The Michaelis-Menten constants, kcat and Km, for selected nucleoside phosphosphoramidates have been determined. (Table 4). As observed in the initial screening assay, for phosphoramidates containing L-tryptophan, hHINT1 has a 7-fold greater preference for AMP phosphoramidates of L-tryptophan than GMP.

Row | Protein | Km [1] | kcat [1] | kcat/Km [1] | Km [2] | kcat [2] | kcat/Km [2]
1 | E. coli hinT (Escherichia coli K-12) (protein) MAEETIFSKIIRREIPSDIVYQDDLVTAFRDISPQAPTHILIIPNILIPTVNDVSAEHEQALGRMITVAAKIAEQEGIAEDGYRLIMNTNRHGGQEVYHIHMHLLGGRPLGPMLAHKGL | 30.1 ± 2.39 µM | 0.45 ± 0.04 s⁻¹ | 15000 M⁻¹ s⁻¹ |  |  | 
2 | hHINT1 (Homo sapiens) (protein) MADEIAKAQVARPGGDTIFGKIIRKEIPAKIIFEDDRCLAFHDISPQAPTHFLVIPKKHISQISVAEDDDESLLGHLMIVGKKCAADLGLNKGYRMVVNEGSDGGQSVYHVHLHVLGGRQMHWPPG |  |  |  | 1.74 ± 0.22 µM | 0.97 ± 0.11 s⁻¹ | 558000 M⁻¹ s⁻¹
